In article PMC7865352, “The Relevance of the SH2 Domain for c-Src Functionality in Triple-Negative Breast Cancer Cells”:

Target: GST-SH2 (c-Src SH2 domain) (human, UniProt P12931 151-248)
Assay: ELONA; ELONA with plated GST proteins and digoxigenin-labelled aptamers (buffer not given in material); selection in PBS + 1 mM Mg, 37 C
Details: protein: recombinant, label: digoxigenin

Binder	binding result	binding result (G-quadruplex examined in silico)
ApSH2.14F (ssDNA) DNA: GCGGATGAAGACTGGTGTAGACAATGGATACTCCCGCCACCTCCTCCCCCGCCCCCCCGCCCTAAATACGAGCAAC	binds	–
ApSH2.17F (ssDNA) DNA: GCGGATGAAGACTGGTGTGCGGTGGTGGGTTGGGTGGGTGGGTTTGCGGGTTGCGTTGGCCCTAAATACGAGCAAC	–	binds
